Series [1] has as its system mouse CNV model. The series is described as follows: Posterior ocular collagen deposition (Col1a staining) in laser-induced CNV mouse model. In kind it is in vivo. Particulars: for reduction in collagen deposition (Col1a): IVT D0, 4, 10 and 20. The method, then:
(§1) Mice (C57BL/6J, male, 8-10 weeks old) were anesthetized by intraperitoneal injection (135 μL) of a mixture of ketamine hydrochloride (Anesketin; […]) and medetomidine (Domitor; 1 mg/mL) and their pupils dilated with one eye drop (50 μL) Tropicamide (Tropicol™; 5 mg/mL; Thea, Research Papers Clermont-Ferrand, France). Three laser burns were placed in one eye with a green laser at the 9, 12, 3 o'clock positions around the optic disk using a slit lamp delivery system with a hand-held cover slide as a contact lens moisturized with Genteal Gel™ (Novartis, Vilvoorde, Belgium). Each spot was placed with a spot size of 100 μm, laser duration of a 50 milliseconds and a power of 320 mW. […] Finally, 300 μL atipamezole (Antisedan; 5 mg/mL) was injected intraperitoneally to reverse the effect of medetomidine and to reduce sedation time.
(§2) At different time points after lasering, the compounds were administered intravitreally (IVT). The animal was anesthetized with a mixture of ketamine hydrochloride/medetomidine and the eye was treated with a drop of 0.4% oxybuprocaine (Unicaine; Thea Pharma). Intravitreal injections (1 μL) to one eye according to Tables 1 to 3 were performed by using an analytic science syringe (SGE Analytic Science) and glass capillaries with a diameter of 50-70 μm at the end, controlled by the UMP3I Microsyringe Injector and Micro4 Controller (all from World Precision Instruments Inc., Hertfordshire, UK). Finally, atipamezole (Antisedan) was injected intraperitoneally to reverse the effect of medetomidine and to reduce sedation time.
(§3) To analyze the in vivo efficacy of the different compounds, the retina was removed from the dissected posterior segments. These posterior eye cups, which included retinal pigment epithelium (RPE), the choroid and the sclera were stored in phosphate buffered saline (PBS).
To stain for the presence of collagen type 1 (Colla) protein in the laser spots at day 30 after laser, a rabbit anti-collagen antibody (Abcam, 1/270) was used overnight, diluted in Tris-buffered saline (TBS)-Triton 0.5% (v/v) at 4° C. The following day, the tissues were incubated for 2 hours with goat anti rabbit IgG Alexa Fluor 555 (Life Technologies; A-21428), diluted 1/100 in TBS-Triton 0.3% (v/v) at 4° C. The flat mounts of the posterior eye cups were mounted with Prolong Gold with 4′,6-diamidino-2-phenylindole (DAPI, Molecular Probes). Images were obtained using a microscope with a digital camera (Axiocam MrC5; Carl Zeiss, Oberkochen, Germany) at a magnification factor of 20. Morphometric analyses were performed using commercial software (Axiovision; Zeiss, Oberkochen, Germany). The density of collagen deposition was determined by calculating the Colla-positive area as a proportion of the total lesion.
(§4) The mouse CNV model as described in Example 2.1 was used. At different time points after lasering, compounds were administered intraperitoneally (IP), or intravitreally (IVT), as indicated in Table 3.

The test system of series [2] is mouse CNV model. The series is described as follows: Leukocyte infiltration (CD45 staining) in laser-induced CNV mouse model. In kind it is in vivo. The protocol:
as §1, §2, §3
On day 5 after lasering, a rat anti-mouse CD45 and F4/80 antibody ( 1/100; Pharmingen, Erembodegem, Belgium) was used overnight to stain all leukocytes and macrophages, respectively, diluted in Tris-buffered saline (TBS)-Triton 0.3% (v/v). The following day, the tissues were incubated for 2 hours with rabbit anti-rat biotin labeled antibody ( 1/300; DakoCytomation A/S, Copenhagen, Denmark), diluted in TBS-Triton 0.3%. Antibody binding was visualized by fluorescent staining using streptavidin-Alexa-568 ( 1/200; Molecular Probes, Life Technologies, Eugene, Oreg., USA) in TBS-Triton 0.3% for 2 hours. The flatmounts of the posterior eye cups were mounted with Prolong Gold with 4′,6-diamidino-2-phenylindole (DAPI, Molecular Probes). Images were obtained using a microscope with a digital camera
(Axiocam MrC5; Carl Zeiss, Oberkochen, Germany) at a magnification of 20×. Morphometric analyses were performed using commercial software (Axiovision; Zeiss, Oberkochen, Germany). The density of inflammation was determined by calculating the CD45-positive area as a proportion of the total lesion.

Series [3] relates to mouse CNV model. The series is described as follows: Macrophage infiltration (F4/80 staining) in laser-induced CNV mouse model. In kind it is in vivo. To be noted: day 5 after lasering; IVT D0; compared to IgG; dose not stated. The method, then: as §1
At different time points after lasering, the compounds were administered intravitreally (IVT). The animal was anesthetized with a mixture of ketamine hydrochloride/medetomidine and the eye was treated with a drop of 0.4% oxybuprocaine (Unicaine; Thea Pharma). […]

Series [4] deals with retinal pigment epithelium (RPE) cell. Particulars: Julien et al., Br J Ophthalmol 2014; cited from earlier work.
Series [5] deals with age-related macular edema (AMD). Particulars: in vivo; cited from earlier work.
For series [6], the system named is mouse CNV model. Description: Pericyte coverage (αSMA staining) in mouse CNV model. To be noted: day 14 after lasering, 25 mg/kg IP 3 times per week. In kind it is in vivo. The method, then:
as §1, §4
To study pericyte coverage as a marker of vessel maturation, smooth muscle cell actin (SMA) was examined on serial […] paraffin sections. […] The amount of SMA cells present in the lesion was determined by the use of commercial software (Axiovision; Zeiss, Oberkochen, Germany).

Series [7] has as its system retinal ganglion cells (RGCs). Particulars: mouse, in vivo, ip, 25 mg/kg.
Method: To investigate the safety of anti-PlGF and anti-VEGF-R2 on the retinal ganglion cell layer, naive mice (C75Bl/6 or Swiss mice) were injected with 25 mg/kg of anti-PlGF, anti-VEGF-R2 or control IgG 3 times a week for 6 weeks. Afterwards the mice were sacrificed and immunohistochemistry for the neuronal marker NeuN was performed. The samples were incubated overnight with the primary mouse anti-NeuN (Chemicon MAB377) 1/500. As secondary antibody, rabbit anti-mouse biotin-labeled 1/400 (Dako E0646) was added for 45 minutes. Subsequently, the sections were incubated with Streptavidin-HRP 1/100 in TNB for 30 minutes, followed by amplification with Biotin (kit NEL700) 1/50 in amplification buffer for 8 minutes and again incubated with Streptavidin-HRP 1/100 for 30 minutes (all from Perkin Elmer, Life Sciences). Hereafter, a 3,3-diaminobenzidine (DAB) staining (Fluka-Sigma Aldrich) was performed by adding peroxide to the tissue and a counterstaining was done with Harris hematoxylin (Merck). Viable RGCs were quantified 2 times on the same serial section on a defined length of the retina (250 μm) on either side of the optic nerve.
In series [8] the test system is retinal ganglion cells (RGCs). Description: Neuroretinal safety in naive mice: apoptotic cells in ganglion cell layer (TUNEL staining). To be noted: 25 mg/kg IP 3 times per week. In kind it is in vivo, mouse. The method, then:
A TUNEL (terminal deoxynucleotidyl transferase-mediated biotinylated UTP nick end labeling) staining was performed to investigate apoptotic signal. Serial sections were deparaffinized, washed and treated with proteinase K ( 1/500; Qiagen, Venlo, the Netherlands) for 15 minutes. Next, sections are incubated with the TUNEL reaction mixture (In Situ Cell Death Detection Kit, POD; Roche, Mannheim, Germany) at 37° C. for 1 hour. Afterwards, the slides were mounted with Prolong Gold containing DAPI (Molecular Probes). Each section was scanned systematically from the temporal to the nasal or a serrata for fluorescent cells indicative of apoptosis. […]

Setting [9] is: day 30, equimolar comparison FIG. 2B: 5D11D4 3.1 μg, DC101 3.1 μg, aflibercept 2.4 μg, TAAC 4 μg, vs IgG.
[10] abbreviates: day 5, equimolar comparison FIG. 1B: 5D11D4 3.1 μg, DC101 3.1 μg, aflibercept 2.4 μg, TAAC 4 μg, vs IgG.
Setting [11] is: day 30, repeated IVT, 3.1 μg (FIG. 2A).
Setting [12] is: day 5, equimolar comparison FIG. 1B (5D11D4 3.1 μg, aflibercept 2.4 μg).
[13] abbreviates: repeat experiment (FIG. 4), day 30, 3.1 μg/eye, compared to PBS.

“Also recorded” adds a separate entry of the source.

As to `CC1(C)O[C@@H]2C[C@H]3[C@@H]4CCC5=CC(=O)C=C[C@]5(C)[C@@]4(F)[C@@H](O)C[C@]3(C)[C@]2(C(=O)CO)O1` [TAAC, triamcinolone acetonide, reference compound], the “effect on collagen deposition, in words” value in the series on mouse CNV model [1] (setting [9]) is “no effect”. Also, the “reduction in collagen deposition (Col1a)” value with mouse CNV model [1] (repeat experiment (FIG. 4), day 30, 40 μg/eye, compared to PBS) was found to be 49%. Also, the “effect on leukocyte infiltration (CD45), in words” value (shortened to “effect on leukocyte infiltration”) with mouse CNV model [2] (setting [10]) is on record as “no effect”.
“aflibercept: multispecific inhibitor capturing VEGF-A, VEGF-B and PlGF; tradename Eylea®, Bayer”: the “decrease of infiltration of macrophages (F4/80)” value with mouse CNV model [3] is reported as 52%. The “effect on collagen deposition, in words” value with mouse CNV model [1] (setting [9]) is “no effect; also recorded: did not show any anti-fibrotic effects”; in the series with mouse CNV model [1] (day 30, repeated IVT, 2.4 μg (FIG. 2A)), “no effect on collagen deposition”; with mouse CNV model [1] (setting [11]), “did not show any anti-fibrotic effects”; with mouse CNV model [1] (day 30, repeated IVT, 20 μg (FIG. 2A)) it was “no effect on collagen deposition”. In addition, the “effect on posterior ocular fibrosis, summary statement” value with mouse CNV model [1] (laser-induced CNV, dose not stated) was “did not reduce posterior ocular fibrosis”. Further, the “effect on collagen deposition / fibrosis, in words” value in the series on mouse CNV model [1] (repeat experiment (FIG. 4), day 30, equimolar amount 2.4 μg/eye, compared to PBS) is recorded as “did not reduce fibrosis”. The “effect on RPE cell death, in words” value in series [4] is “increase retinal pigment epithelium (RPE) cell death”. The “effect on inflammation in laser-induced CNV, summary statement” value with mouse CNV model [2] (comparable reduction at comparable dose, dose not stated) is given as “able to reduce inflammation”. The “reduction in leukocyte infiltration (CD45)” value in the series on mouse CNV model [2] (setting [12]) was 50%; with mouse CNV model [2] (day 5 after lasering, single IVT D0, 2.4 μg, compared to IgG), “approximately 50%”; in the series on mouse CNV model [2] (day 5 after lasering, single IVT D0, 20 μg, compared to IgG) it was “approximately 50%”. The “effect on leukocyte infiltration” value with mouse CNV model [2] (day 5 after lasering, IVT D0, 2.4 μg, vs IgG (FIG. 1A)) is recorded as “comparable effects”; in the series with mouse CNV model [2] (day 5 after lasering, IVT D0, 20 μg, vs IgG (FIG. 1A)) it was “comparable effects”.
On to “bevacizumab: antibody binding all VEGF-A isoforms”, for which the “patients developing a posterior fibrotic scar” value in series [5] is recorded as 24.7%.
Regarding “ranibizumab: antibody fragment binding all VEGF-A isoforms”, the “patients developing a posterior fibrotic scar” value in series [5] is reported as 24.7%.

B1: 5D11D4: murine anti-murine PlGF-neutralizing antibody; heavy chain SEQ ID NO:12, light chain SEQ ID NO:13 (antibody, listed as Mus musculus, V domains shown)
VH: QVQLQQPGAELVRPGASVKLSCKASGYTFTNYWINWVKQRPGQGLEWIGNIYPSDSFTNYNQKFKDKATLTVDKSSSTAYMHLSSPTSDDSAVYYCTRDYRYDAVYALDYWGQGTSVTVSS
VL: QIVLTQSPAIMSASPGEKVTITCSASSSVSFIHWFQQKPGTSPKLWIYGTSNLASGVPARFSGSGSGTSSSLTISRMEAEDAATYYCQQRSRYPYTFGGGTKLEIK
modifications: VH 5D11D4; VL 5D11D4
On to B1, for which the “decrease of infiltration of macrophages (F4/80)” value with mouse CNV model [3] is given as 48%. Moreover, the “effect on collagen deposition, in words” value is “delays the process of wound healing; also recorded: decreased collagen deposition” in the series with mouse CNV model [1] (setting [9]); “decreased collagen deposition” with mouse CNV model [1] (day 30, repeated IVT, 1.5 μg (FIG. 2A)); “decreased collagen deposition” with mouse CNV model [1] (setting [11]). For the same molecule, the “reduction in collagen deposition (Col1a)” value is on record as 43% in the series on mouse CNV model [1] (day 30 after lasering, 1.5 μg, compared to IgG); 44% in the series on mouse CNV model [1] (day 30 after lasering, 3.1 μg, compared to IgG); 44% in the series on mouse CNV model [1] (setting [13]). The “effect on collagen deposition / fibrosis, in words” value in the series on mouse CNV model [1] (setting [13]) is reported as “significantly decreased collagen deposition”. The “αSMA-positive area versus control IgG, in words” value with mouse CNV model [6] was “increased the αSMA (smooth muscle cell actin) positive area”. Besides, in the series with mouse CNV model [6] (vs control IgG), the “increase in pericyte-covered vessels” value is on record as 35%. Moreover, the “RGCs/retinal area versus other treatment groups, in words” value in series [7] is “not significantly different”. Further, in series [7], the “effect on RGC density, in words” value is listed as “did not induce any alteration”. Besides, the “ganglion cell density (RGC/retinal area)” value in series [7] was determined as 4600 RGC/retinal area. In addition, in series [8] (C57Bl/6 mice, after 6 weeks), the “apoptotic cells per retinal area versus control IgG, in words” value was “comparable”. Further, the “apoptotic cells per retinal area in the ganglion cell layer (TUNEL)” value in series [8] (C57Bl/6 mice, after 6 weeks, control IgG 16±2) is 20±4 apoptotic cells per retinal area. The “effect on apoptotic cells / apoptotic rate, in words” value in series [8] (Swiss mice (Rd gene)) is on record as “did not induce any alteration”. The “reduction in leukocyte infiltration (CD45)” value with mouse CNV model [2] (setting [12]) came out at 50%; in the series with mouse CNV model [2] (day 5 after lasering, single IVT D0, 1.5 μg, compared to IgG) it was 36%; in the series on mouse CNV model [2] (day 5 after lasering, single IVT D0, 3.1 μg, compared to IgG) it was 46%. The “effect on leukocyte infiltration” value with mouse CNV model [2] (setting [10]) is “decreased leukocyte infiltration”; with mouse CNV model [2] (day 5 after lasering, IVT D0, 1.5 μg, vs IgG (FIG. 1A)) it was “decreased leukocyte infiltration”; with mouse CNV model [2] (day 5 after lasering, IVT D0, 3.1 μg, vs IgG (FIG. 1A)) it was “decreased leukocyte infiltration”.

The values above are taken from patent US20190031762A1, “POSTERIOR OCULAR FIBROSIS INHIBITION BY ANTAGONIZING PLACENTAL GROWTH FACTOR” (THROMBOGENICS NV, priority 2016, published 2019).
